{
  "source": "paper PMC10628242",
  "about": "“Enzymatic β-elimination in natural product O- and C-glycoside deglycosylation” (Nature Communications, 2023)",
  "key": {"[1]": {"substrate": "O=C(CCc1ccc(O)cc1)c1c(O)cc(O)cc1O[C@@H]1O[C@H](COP(=O)(O)O)[C@@H](O)[C@H](O)[C@H]1O", "assay": "initial rates, HPLC of phloretin release", "assay_type": "biochemical, Bacillus subtilis", "conditions": "HEPES pH 7.5, 0.5 mM MnSO4, 0.3 mM NAD+, 37 °C"}, "[2]": {"substrate": "O=C(CCc1ccc(O)cc1)c1c(O)cc(O)cc1O[C@@H]1O[C@H](COP(=O)(O)O)[C@@H](O)[C@H](O)[C@H]1O", "assay": "initial rates, HPLC of phloretin release", "assay_type": "biochemical, Thermotoga maritima", "conditions": "HEPES pH 7.5, 0.5 mM MnSO4, 0.3 mM NAD+, 37 °C"}, "[3]": {"substrate": "O=C(CCc1ccc(O)cc1)c1c(O)cc(O)cc1O[C@@H]1O[C@H](CO)[C@@H](O)C(=O)[C@H]1O", "assay": "initial rates, HPLC of phloretin release", "assay_type": "biochemical, Agrobacterium radiobacter", "conditions": "potassium phosphate pH 6.0, 5% DMSO, 37 °C, printed kcat is 10-fold above the one implied by printed kcat/Km (1.2 × 10^6 M^−1s^−1) and by 235 U/mg"}, "[4]": {"substrate": "O=C1[C@@H](O)[C@H](c2c(O)ccc3c(=O)c(-c4ccc(O)cc4)coc23)O[C@H](CO)[C@H]1O", "assay": "initial rates, HPLC of daidzein release", "assay_type": "biochemical, human intestinal bacterium PUE", "conditions": "potassium phosphate pH 6.0, 5% DMSO, 37 °C, preincubated with 5 mM MnCl2, substrate is a 2/3-keto mixture"}, "[5]": {"substrate": "O=C(CCc1ccc(O)cc1)c1c(O)cc(O)cc1O[C@@H]1O[C@H](CO)[C@@H](O)C(=O)[C@H]1O", "assay": "initial rates, HPLC of phloretin release", "assay_type": "biochemical, human intestinal bacterium PUE", "conditions": "potassium phosphate pH 6.0, 5% DMSO, 37 °C, preincubated with 5 mM MnCl2"}},
  "data": [
    {"protein": "GlvA (Bacillus subtilis subsp. subtilis str. 168) (protein, N-terminal Strep-tag II; E. coli; 51,960 Da; GH4, Mn2+ and NAD+ dependent) MKKKSFSIVIAGGGSTFTPGIVLMLLDHLEEFPIRKLKLYDNDKERQDRIAGACDVFIREKAPDIEFAATTDPEEAFTDVDFVMAHIRVGKYAMRALDEQIPLKYGVVGQETCGPGGIAYGMRSIGGVLEILDYMEKYSPDAWMLNYSNPAAIVAEATRRLRPNSKILNICDMPVGIEDRMAQILGLSSRKEMKVRYYGLNHFGWWTSIQDQEGNDLMPKLKEHVSQYGYIPKTEAEAVEASWNDTFAKARDVQAADPDTLPNTYLQYYLFPDDMVKKSNPNHTRANEVMEGREAFIFSQCDMITREQSSENSEIKIDDHASYIVDLARAIAYNTGERMLLIVENNGAIANFDPTAMVEVPCIVGSNGPEPITVGTIPQFQKGLMEQQVSVEKLTVEAWAEKSFQKLWQALILSKTVPNARVARLILEDLVEANKDFWPELDQSPTRIS", "values": [
      {"measurement": "Km", "setting": "[1]", "value": 100, "unit": "µM"},
      {"measurement": "kcat", "setting": "[1]", "value": "~0.02", "unit": "s⁻¹"}
    ]},
    {"protein": "BglT (Thermotoga maritima MSB8) (protein, N-terminal Strep-tag II; E. coli; 48,997 Da; GH4, Mn2+ and NAD+ dependent) MRIAVIGGGSSYTPELVKGLLDISEDVRIDEVIFYDIDEEKQKIVVDFVKRLVKDRFKVLISDTFEGAVVDAKYVIFQFRPGGLKGRENDEGIPLKYGLIGQETTGVGGFSAALRAFPIVEEYVDTVRKTSNATIVNFTNPSGHITEFVRNYLEYEKFIGLCNVPINFIREIAEMFSARLEDVFLKYYGLNHLSFIEKVFVKGEDVTEKVFENLKLKLSNIPDEDFPTWFYDSVRLIVNPYLRYYLMEKKMFKKISTHELRAREVMKIEKELFEKYRTAVEIPEELTKRGGSMYSTAAAHLIRDLETDEGKIHIVNTRNNGSIENLPDDYVLEIPCYVRSGRVHTLSQGKGDHFALSFIHAVKMYERLTIEAYLKRSKKLALKALLSHPLGPDVEDAKDLLEEILEANREYVKLG", "values": [
      {"measurement": "Km", "setting": "[2]", "value": 300, "unit": "µM"},
      {"measurement": "kcat", "setting": "[2]", "value": "~0.01", "unit": "s⁻¹"}
    ]},
    {"protein": "AtOGE (Agrobacterium radiobacter) (protein, N-terminal Strep-tag II kept in assays (cut by TEV only for crystallization); E. coli Lemo21(DE3); 29,895 Da subunit; Mn2+ enzyme; dimer in crystal) KLDDSKTLPIAAQMYTLRNAGTLEEQLAILNRAGVSAVETVDMQKVSASELNALLEKHKIKVISSHVPIDKLRGNLDEVITEQKAVGNPVVTVPFLKPEDRPKDAAGWTAFGKELGGYADKLSAAGLSMAYHNHDFEMVKFDGKTALELLLDAAGPKLQSELDVAWVARSGNDPAEFLGTLNGRVFAIHAKDDAPAGTAENERGFATIGTGVLDWKTILPAAKHAGAQWFILEHDLPLDAEAVVTKGNAFLSERLPTIQ", "values": [
      {"measurement": "Km", "setting": "[3]", "value": "0.10 (±0.01) mM"}
    ]},
    {"protein": "PuCGE (human intestinal bacterium PUE) (protein, heterodimer alpha (39,205 Da) + beta (18,313 Da), co-expressed from pET-Duet-1 in E. coli; N-terminal Strep-tag II; Mn2+ enzyme) chain 1: MSNVKLGVTLYSFSTEYCQGKMTLEDCIRTAKELGAAGFEIVATQMIPSYPYVSDKFLGELKSICQYYDMEPVCYGANCDRGLRGDRNLTGDEMVAMAVRDIKNAHKMGCKVVREQWLMGPENFAKLAPFAEHYGVKVGIEVHNPETPITQSTKDYIAAIDKTGSKYLGLIPDFGCFANKPNKMNWDNALADGADKKLLEMARDMKYDNVPYDEAVKRLTAAGAKKVELTTMRDMYTFLTFKKDVSAELQGLKDMIPYCIHMHGKYHYMYENLQEAAIPYDDIMKIVSESDYDGYIVSEYEEYNSGHSIEMLRRHLKMMHNFVD chain 2: MGLALRLNFVDVVCDDSLKNFWANGKKIGYQFDVRLSYYRGHFLSTIDEIGVKVDGVDVPAENISLCLDGKEYGVAELHDLVNVFWPIIEPATIKVFQPGGLSEEEHDVDFTLYFRSPYMALSETEYQSIDSCGSKRLNVQN", "values": [
      {"measurement": "Km", "setting": "[4]", "value": "0.8 (±0.1) mM"},
      {"measurement": "kcat", "setting": "[4]", "value": "18 (±0.4) s^−1"},
      {"measurement": "Km", "setting": "[5]", "value": "0.6 (±0.1) mM"},
      {"measurement": "kcat", "setting": "[5]", "value": "1.20 (±0.05) s^−1"}
    ]}
  ]
}
